Literature values, collected in article PMC8512968.

Biological target: band 3 cytoplasmic domain (Homo sapiens) (UniProt P02730)
Experiment: sedimentation equilibrium AUC

In the case of “band 3 cytoplasmic domain (from UniProt P02730)”, the Kd is listed as 2800 nM.
